According to US9205132B2, “Method of lowering mortality” (CORTHERA, INC., priority 2008, dated 2015):
Marks after values point to notes of the source that are not given here.

Tests used:
[1] = system: patients with acute heart failure (AHF); assay: Safety endpoints (adverse events, blood pressure, renal impairment, clinical laboratory), Pre-RELAX-AHF trial; assay type: in vivo, human; details: for change from baseline in mean hematocrit at 48 hours: described as transient decrease; for Total number of SAEs: to Day 30
Description: (§1) Study Procedures. The study was approved by the relevant ethics committees, institutional review hoards and regulatory authorities, and conducted under the International Conference on Harmonization Good Clinical Practice guidelines. All patients provided informed written consent prior to participation. […] The placebo used for the study was the same solution as the diluent used to prepare the 100 μg/kg/day dose. The randomization ratio was 3:2:2:2:2, respectively, Relaxin (Corthera, San Mateo, Calif.) was manufactured using recombinant techniques and was identical to the naturally-occurring peptide hormone. By protocol, the study drug infusion was to be terminated if the patient's SBP was reduced to <100 mmHg or by >40 mmHg compared to baseline in two successive measurements, 15 minutes apart. Investigators were not prohibited from utilizing any standard medication, thought necessary to treat patients enrolled in the study, including additional vasodilators, following a 4-hour washout period during which time IV vasodilators, IV pure inotropes and meals were withheld, hemodynamic, renal, and clinical responses to 48 hours of study drug infusion were assessed.
(§2) Study Endpoints. […] 4.) Length of initial hospital stay.

[2] = system: patients with acute heart failure (AHF); assay: In-hospital short-term outcomes (worsening heart failure, length of stay, signs of heart failure, diuretic and nitroglycerin use, body weight), Pre-RELAX-AHF trial; assay type: in vivo, human; details: for Length of Hospital Stay: mean ± SD
Description: as §1, §2

[3] = relaxin for 48 hours, AHF patients

In the case of Relaxin, the “mean decrease in SBP compared to placebo during infusion” value ([1]; 100 mcg/kg/d IV 48 h) is reported as 3-4 mmHg, the “proportion of patients at Day 14 with an increase in creatinine of 0.3 mg/dL or more” value ([1]; 100 mcg/kg/d IV 48 h) is reported as 24.2% and the “change from baseline in mean hematocrit at 48 hours” value ([1]; 100 mcg/kg/d IV 48 h) is reported as 0.25%. For the same substance, the “Patients with any AE from Day 15 to Day 30, n (%)” value ([1]; 250 mcg/kg/d IV 48 h) was 3 (6.1%) n (%), the “Patients with any SAEs to Day 30, n (%)” value ([1]; 250 mcg/kg/d IV 48 h) was 8 (16.3%) n (%) and the “Patients with any adverse events to Day 30, n (%)” value ([1]; 250 mcg/kg/d IV 48 h) was 25 (51.0%) n (%). For the same substance, the “Protocol-specified study drug discontinuation due to blood pressure reduction” value ([1]; 250 mcg/kg/d IV 48 h) was 16.3%, the “Renal impairment: Patients with ≧0.3 mg/dL increase in creatinine at Day 5” value ([1]; 250 mcg/kg/d IV 48 h) was 10 (22.7%) n (%) and the “Renal impairment: Patients with ≧0.3 mg/dL increase in creatinine at Day 5 and Day 14” value ([1]; 250 mcg/kg/d IV 48 h) was 7 (15.2%) + n (%). For the same substance, the “Renal impairment: Patients with ≧25% increase in creatinine at Day 5” value ([1]; 250 mcg/kg/d IV 48 h) was 12 (25.5%) n (%), the “SAE to Day 30: Acute respiratory failure, n (%)” value ([1]; 250 mcg/kg/d IV 48 h) was 0 n (%) and the “SAE to Day 30: Bronchitis, n (%)” value ([1]; 250 mcg/kg/d IV 48 h) was 1 (2.0%) n (%). For the same substance, the “SAE to Day 30: Cardiac failure, n (%)” value ([1]; 250 mcg/kg/d IV 48 h) was 2 (6.1%) n (%), the “SAE to Day 30: Cerebrovascular accident, n (%)” value ([1]; 250 mcg/kg/d IV 48 h) was 0 n (%) and the “SAE to Day 30: Hypotension, n (%)” value ([1]; 250 mcg/kg/d IV 48 h) was 2 (4.1%) n (%). The “SAE to Day 30: Noncardiac chest pain, n (%)” value ([1]; 250 mcg/kg/d IV 48 h) was 1 (2.0%) n (%), the “SAE to Day 30: Pneumonia, n (%)” value ([1]; 250 mcg/kg/d IV 48 h) was 0 n (%) and the “SAE to Day 30: Renal failure, n (%)” value ([1]; 250 mcg/kg/d IV 48 h) was 0 n (%). The “SAE to Day 30: Urinary retention, n (%)” value ([1]; 250 mcg/kg/d IV 48 h) was 0 n (%), the “SAE to Day 30: Urinary tract infection, n (%)” value ([1]; 250 mcg/kg/d IV 48 h) was 1 (2.0%) n (%) and the “SAE to Day 30: Ventricular fibrillation, n (%)” value ([1]; 250 mcg/kg/d IV 48 h) was 0 n (%). For the same substance, the “mean change in creatinine from baseline at Day 14” value ([1]; 250 mcg/kg/d IV 48 h) was 0.10 ± 0.39 mg/dL, the “proportion of patients at Day 14 with an increase in creatinine of 0.3 mg/dL or more” value ([1]; 250 mcg/kg/d IV 48 h) was 37.2% and the “change from baseline in mean hematocrit at 48 hours” value ([1]; 250 mcg/kg/d IV 48 h) was 0.64%. For the same substance, the renal toxicity ([1]; AHF and/or acute vascular failure patients) was “low to no renal toxicity”, the safety and tolerability ([1]; AHF patients, all doses) was “no safety or tolerability issues” and the “hypotension in patients with baseline SBP below the median” value ([1]; FIGS. 22A and 22B) was “does not cause deleterious hypotension”. The “trough SBP” value ([1]; all cases with blood pressure reduction) was ≥ 80 mmHg, the “mean change in pulse from baseline through day 14” value ([1]; all relaxin groups vs placebo, FIG. 20) was “not chronotropic” and the “average decrease in systolic blood pressure over all time points during infusion vs placebo” value ([1]; all relaxin groups, FIG. 21) was “did not differ”. For the same substance, the “patients who received intravenous fluids for hypotension” value ([1]; four relaxin-treated groups together (5 patients)) was 3.0%, the “patients with SBP reductions in whom SBP stabilized or rose with no therapy after discontinuation of study drug” value ([1]; relaxin-treated patients, all doses) was 18 of 23 and the “Total number of SAEs” value ([1]; 10 mcg/kg/d IV 48 h) was 8. For the same substance, the “Total number of SAEs” value ([1]; 30 mcg/kg/d IV 48 h) was 12, the “Total number of SAEs” value ([1]; 100 mcg/kg/d IV 48 h) was 3 and the “Total number of SAEs” value ([1]; 250 mcg/kg/d IV 48 h) was 11. For the same substance, the “% of subjects at Day 5 with: JVP <6 cm” value ([2]; 10 mcg/kg/d IV 48 h) was 72.5%, the “% of subjects at Day 5 with: No edema” value ([2]; 10 mcg/kg/d IV 48 h) was 55.0% and the “% of subjects at Day 5 with: No rales” value ([2]; 10 mcg/kg/d IV 48 h) was 65.0%. For the same substance, the “Worsening HF through Day 5 (%)” value ([2]; 10 mcg/kg/d IV 48 h) was 20.0%, the “patients receiving intravenous nitroglycerin during the first 24 hours” value ([2]; 10 mcg/kg/d IV 48 h) was 10.0% and the “Length of Hospital Stay” value ([2]; 10 mcg/kg/d IV 48 h) was 10.9 ± 8.5 days. For the same substance, the “Median change in body weight from baseline to Day 14 [kg; median (Q1; Q3)]” value (“Median change in body weight” below) ([2]; 10 mcg/kg/d IV 48 h) was -2.0 kg, the “Median total IV diuretic dose from randomization to Day 5 [mg; median (Q1-Q3)]” value (“Median total IV diuretic dose” for short) ([2]; 10 mcg/kg/d IV 48 h) was 100 mg and the “% of subjects at Day 5 with: JVP <6 cm” value ([2]; 30 mcg/kg/d IV 48 h) was 78.6%. For the same substance, the “% of subjects at Day 5 with: No edema” value ([2]; 30 mcg/kg/d IV 48 h) was 64.3 † %, the “% of subjects at Day 5 with: No rales” value ([2]; 30 mcg/kg/d IV 48 h) was 76.2% and the “Worsening HF through Day 5 (%)” value ([2]; 30 mcg/kg/d IV 48 h) was 11.9%. The “patients receiving intravenous nitroglycerin during the first 24 hours” value ([2]; 30 mcg/kg/d IV 48 h) was 9.5%, the “Length of Hospital Stay” value ([2]; 30 mcg/kg/d IV 48 h) was 10.2 ± 6.1 days and the “Median change in body weight” value ([2]; 30 mcg/kg/d IV 48 h) was -3.0 kg. For the same substance, the “Median total IV diuretic dose” value ([2]; 30 mcg/kg/d IV 48 h) was 100 mg, the “% of subjects at Day 5 with: JVP <6 cm” value ([2]; 100 mcg/kg/d IV 48 h) was 73.0% and the “% of subjects at Day 5 with: No edema” value ([2]; 100 mcg/kg/d IV 48 h) was 51.4 * %. The “% of subjects at Day 5 with: No rales” value ([2]; 100 mcg/kg/d IV 48 h) was 70.3%, the “Worsening HF through Day 5 (%)” value ([2]; 100 mcg/kg/d IV 48 h) was 13.5% and the “patients receiving intravenous nitroglycerin during the first 24 hours” value ([2]; 100 mcg/kg/d IV 48 h) was 13.5. The “Length of Hospital Stay” value ([2]; 100 mcg/kg/d IV 48 h) was 11.1 ± 6.6 days, the “Median change in body weight” value ([2]; 100 mcg/kg/d IV 48 h) was -2.5 kg and the “Median total IV diuretic dose” value ([2]; 100 mcg/kg/d IV 48 h) was 90 + mg. The “% of subjects at Day 5 with: JVP <6 cm” value ([2]; 250 mcg/kg/d IV 48 h) was 76.6 + %, the “% of subjects at Day 5 with: No edema” value ([2]; 250 mcg/kg/d IV 48 h) was 61.2 † % and the “% of subjects at Day 5 with: No rales” value ([2]; 250 mcg/kg/d IV 48 h) was 71.4%. The “Worsening HF through Day 5 (%)” value ([2]; 250 mcg/kg/d IV 48 h) was 10.2%, the “patients receiving intravenous nitroglycerin during the first 24 hours” value ([2]; 250 mcg/kg/d IV 48 h) was 4.1% and the “Length of Hospital Stay” value ([2]; 250 mcg/kg/d IV 48 h) was 10.6 ± 6.6 days. The “Median change in body weight” value ([2]; 250 mcg/kg/d IV 48 h) was -2.0 kg, the “Median total IV diuretic dose” value ([2]; 250 mcg/kg/d IV 48 h) was 140 mg and the “period over which the improvements lasted” value ([2]; relaxin administered for as little as 48 hours) was 14 days. For the same substance, the “reduction in excessive body weight due to fluid retention, average loss” value [2, 3] was “about 1 kg”, the shorter hospital stays [2, 3] was ≤ 2.5 days and the “mean length of stay for the index hospitalization, shorter than for placebo” value ([2]; relaxin groups 10-250 mcg/kg/d vs placebo) was 0.9 to 1.8 days.
